For one experiment, the target named is HBsAg adr. Put plainly: ELISA.
A further experiment has as its target HBsAg ayw (hepatitis B virus). The experiment can be described thus: ELISA.

B1: HBC34 (antibody, V domains shown)
VH: ELQLVESGGGWVQPGGSQRLSCAASGRIFRSFYMSWVRQAPGKGLEWVATINQDGSEKLYVDSVKGRFTISRDNAKNSLFLQMNNLRVEDTAVYYCAAWSGNSGGMDVWGQGTTVSVSS
VL: SYELTQPPSVSVSPGQTVSIPCSGDKLGNKNVCWFQHKPGQSPVLVIYEVKYRPSGIPERFSGSNSGNTATLTISGTQAMDEAAYFCQTWDSTTVVFGGGTRLTVL
Take B1: the EC50 in the experiment with HBsAg adr is 6 ng/mL; with HBsAg ayw, 10 ng/mL.

Values taken from US20190016785A1 (published 2019).
